Measured values published in US20200339690A1 (JOUNCE THERAPEUTICS, published 2020).
One block for each binder: values may come before it.

What was measured:
human LILRA1 = biological target: T1, human LILRA1 (human, UniProt O75019 17-489); assay: flow cytometry, LILRA1 CHOs
T1 construct: Over-expressed on CHO-s cells; also called hLILRA1

[1] = biological target: T2, human LILRB2 expressed on cells (human, UniProt Q8N423 22-597); assay: cell-based or functional assay
[2] = biological target: T2, human LILRB2 expressed on cells; assay: blocking of HLA-A2 tetramer on LILRB2 CHOs, flow cytometry, mAb 10 ug/mL
Protocol: (§1) In the secondary screen, 1×10⁵ CHO-s cells over-expressing human LILRB2 were plated in 96-well round-bottom tissue culture-treated plate and washed twice with 1×DPBS (Gibco) and incubated with 10 μg/mL primary antibody (anti-LILRB2 mAbs or control) prepared in 50 μL FACS buffer (1×DPBS containing 2% HI-FBS (Sigma)+0.05% Sodium Azide). After incubation with mAbs for 30 minutes at 4° C., cells were washed twice in FACS buffer and then resuspended in 50 μL of FACS buffer containing 5 μg/mL APC-conjugated HLA-A2 or HLA-G tetramer (Fred Hutch). Cells were incubated protected from light for 30-60 minutes at 4° C. After incubation with tetramer, cells were washed in FACS buffer and re-suspended in fix buffer (1.5% paraformaldehyde diluted in 1×DPBS). Samples were analyzed using the Celesta flow cytometer analyzer (BD Biosciences). Data represent percent tetramer blocked by mAbs relative to tetramer alone, calculated according to the following equation: […]

human LILRA2 = biological target: T3, human LILRA2 (human, UniProt Q8N149 24-483); assay: flow cytometry, LILRA2 CHOs
T3 construct: Over-expressed on CHO-s cells; also called hLILRA2
T3 sequence (Q8N149 24-483 S135L limits assumed): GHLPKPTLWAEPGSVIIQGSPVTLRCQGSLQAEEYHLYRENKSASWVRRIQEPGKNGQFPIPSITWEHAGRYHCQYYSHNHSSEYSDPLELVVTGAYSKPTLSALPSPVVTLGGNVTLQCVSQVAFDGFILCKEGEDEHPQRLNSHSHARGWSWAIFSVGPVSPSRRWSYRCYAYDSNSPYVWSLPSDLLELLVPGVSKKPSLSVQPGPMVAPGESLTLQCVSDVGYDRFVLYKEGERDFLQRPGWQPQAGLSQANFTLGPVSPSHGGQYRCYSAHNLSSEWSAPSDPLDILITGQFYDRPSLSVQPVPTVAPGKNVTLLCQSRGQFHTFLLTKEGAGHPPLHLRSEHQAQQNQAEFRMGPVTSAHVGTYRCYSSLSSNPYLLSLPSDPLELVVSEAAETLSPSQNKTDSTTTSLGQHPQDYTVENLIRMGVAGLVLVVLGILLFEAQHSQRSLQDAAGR

human LILRB1 = biological target: T4, human LILRB1 (human, UniProt Q8NHL6 24-650); assay: flow cytometry, LILRB1 CHOs
T4 construct: Over-expressed on CHO-s cells; also called hLILRB1
T4 sequence (Q8NHL6 24-650 limits assumed): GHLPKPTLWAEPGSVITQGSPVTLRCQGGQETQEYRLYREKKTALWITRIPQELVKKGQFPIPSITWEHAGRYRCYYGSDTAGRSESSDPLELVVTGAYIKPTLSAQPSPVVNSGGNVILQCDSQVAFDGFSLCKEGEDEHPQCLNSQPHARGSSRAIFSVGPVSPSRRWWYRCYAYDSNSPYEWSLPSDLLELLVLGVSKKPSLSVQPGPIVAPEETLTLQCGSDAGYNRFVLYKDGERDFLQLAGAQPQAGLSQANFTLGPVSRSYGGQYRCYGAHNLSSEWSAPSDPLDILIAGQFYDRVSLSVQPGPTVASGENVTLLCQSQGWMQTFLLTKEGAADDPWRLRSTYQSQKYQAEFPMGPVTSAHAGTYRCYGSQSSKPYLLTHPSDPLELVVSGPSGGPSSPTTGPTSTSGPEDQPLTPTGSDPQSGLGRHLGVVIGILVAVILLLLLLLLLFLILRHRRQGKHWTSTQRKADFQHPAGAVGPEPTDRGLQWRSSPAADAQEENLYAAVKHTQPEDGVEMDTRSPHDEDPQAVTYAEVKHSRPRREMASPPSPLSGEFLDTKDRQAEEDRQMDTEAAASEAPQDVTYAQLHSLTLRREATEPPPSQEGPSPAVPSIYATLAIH

human LILRB5 = biological target: T5, human LILRB5 (human, UniProt O75023 24-590); assay: flow cytometry, LILRB5 CHOs
T5 construct: Over-expressed on CHO-s cells; also called hLILRB5
T5 sequence (O75023 24-590 P542R limits assumed): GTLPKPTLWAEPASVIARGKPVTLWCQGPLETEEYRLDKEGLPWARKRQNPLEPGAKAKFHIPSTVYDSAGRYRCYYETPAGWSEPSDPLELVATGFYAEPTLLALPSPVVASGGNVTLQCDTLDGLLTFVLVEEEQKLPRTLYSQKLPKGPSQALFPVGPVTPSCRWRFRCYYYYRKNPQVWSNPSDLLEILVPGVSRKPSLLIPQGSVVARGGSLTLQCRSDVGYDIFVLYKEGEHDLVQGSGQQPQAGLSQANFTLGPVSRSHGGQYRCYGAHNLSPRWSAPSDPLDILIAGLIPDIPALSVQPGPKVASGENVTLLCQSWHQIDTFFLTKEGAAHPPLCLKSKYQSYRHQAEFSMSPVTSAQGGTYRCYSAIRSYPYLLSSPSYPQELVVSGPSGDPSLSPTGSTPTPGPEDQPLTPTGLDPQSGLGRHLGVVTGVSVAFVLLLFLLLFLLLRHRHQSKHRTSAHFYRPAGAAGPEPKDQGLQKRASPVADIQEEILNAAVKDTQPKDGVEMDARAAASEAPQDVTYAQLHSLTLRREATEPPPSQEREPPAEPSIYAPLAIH

human LILRB4 = biological target: T6, human LILRB4 (human, UniProt Q8NHJ6 22-448); assay: flow cytometry, LILRB4 CHOs
T6 construct: Over-expressed on CHO-s cells; also called hLILRB4

human LILRA6 = biological target: T7, human LILRA6 (human, UniProt Q6PI73 24-481); assay: flow cytometry, LILRA6 CHOs
T7 construct: Over-expressed on CHO-s cells; also called hLILRA6
T7 sequence (Q6PI73 24-481 limits assumed): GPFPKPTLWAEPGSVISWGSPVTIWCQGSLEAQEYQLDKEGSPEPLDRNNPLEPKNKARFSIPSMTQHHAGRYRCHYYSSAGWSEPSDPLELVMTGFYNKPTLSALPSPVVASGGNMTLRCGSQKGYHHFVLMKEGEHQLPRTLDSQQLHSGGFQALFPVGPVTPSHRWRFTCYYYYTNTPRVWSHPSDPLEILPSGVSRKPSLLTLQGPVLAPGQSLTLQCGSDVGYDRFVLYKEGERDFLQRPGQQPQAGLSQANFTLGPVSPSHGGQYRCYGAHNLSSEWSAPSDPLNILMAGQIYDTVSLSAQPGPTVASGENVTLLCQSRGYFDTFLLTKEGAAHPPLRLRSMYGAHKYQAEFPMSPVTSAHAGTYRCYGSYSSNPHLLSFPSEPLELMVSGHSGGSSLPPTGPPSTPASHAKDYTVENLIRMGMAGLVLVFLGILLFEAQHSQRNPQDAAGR

human LILRA5 = biological target: T8, human LILRA5 (human, UniProt A6NI73 42-299); assay: flow cytometry, LILRA5 CHOs
T8 construct: Over-expressed on CHO-s cells; also called hLILRA5
T8 sequence (A6NI73 42-299 limits assumed): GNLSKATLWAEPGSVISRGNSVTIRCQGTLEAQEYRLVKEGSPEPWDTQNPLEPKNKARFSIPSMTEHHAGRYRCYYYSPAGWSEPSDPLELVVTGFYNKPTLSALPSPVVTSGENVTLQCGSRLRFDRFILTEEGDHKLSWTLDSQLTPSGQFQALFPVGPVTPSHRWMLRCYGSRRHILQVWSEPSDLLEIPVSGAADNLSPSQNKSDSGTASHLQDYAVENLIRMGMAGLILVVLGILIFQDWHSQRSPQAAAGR

human LILRB3 = biological target: T9, human LILRB3 (human, UniProt O75022 24-631); assay: flow cytometry, LILRB3 CHOs
T9 construct: Over-expressed on CHO-s cells; also called hLILRB3

human LILRA3 = biological target: T10, human LILRA3 (human, UniProt Q8N6C8 24-439); assay: flow cytometry, LILRA3 CHOs
T10 construct: Over-expressed on CHO-s cells; also called hLILRA3
T10 sequence (Q8N6C8 24-439 limits assumed): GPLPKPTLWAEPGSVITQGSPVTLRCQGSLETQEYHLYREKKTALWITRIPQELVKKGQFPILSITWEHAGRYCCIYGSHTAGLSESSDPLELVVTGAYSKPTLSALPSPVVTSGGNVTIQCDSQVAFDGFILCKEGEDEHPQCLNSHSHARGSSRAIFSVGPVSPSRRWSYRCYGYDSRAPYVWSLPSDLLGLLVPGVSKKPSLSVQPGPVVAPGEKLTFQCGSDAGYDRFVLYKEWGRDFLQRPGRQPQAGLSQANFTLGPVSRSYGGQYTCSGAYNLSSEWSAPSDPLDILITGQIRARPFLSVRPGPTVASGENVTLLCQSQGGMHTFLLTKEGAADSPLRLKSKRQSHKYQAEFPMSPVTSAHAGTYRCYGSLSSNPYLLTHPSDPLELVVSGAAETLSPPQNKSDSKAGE

[3] = biological target: T2, human LILRB2 expressed on cells; assay: blocking of HLA-G tetramer on LILRB2 CHOs, flow cytometry, mAb 10 ug/mL
Protocol: as §1

[4] = biological target: T2, human LILRB2 expressed on cells; assay: flow cytometry, LILRB2 CHOs

T1 sequence (O75019 17-489 limits assumed): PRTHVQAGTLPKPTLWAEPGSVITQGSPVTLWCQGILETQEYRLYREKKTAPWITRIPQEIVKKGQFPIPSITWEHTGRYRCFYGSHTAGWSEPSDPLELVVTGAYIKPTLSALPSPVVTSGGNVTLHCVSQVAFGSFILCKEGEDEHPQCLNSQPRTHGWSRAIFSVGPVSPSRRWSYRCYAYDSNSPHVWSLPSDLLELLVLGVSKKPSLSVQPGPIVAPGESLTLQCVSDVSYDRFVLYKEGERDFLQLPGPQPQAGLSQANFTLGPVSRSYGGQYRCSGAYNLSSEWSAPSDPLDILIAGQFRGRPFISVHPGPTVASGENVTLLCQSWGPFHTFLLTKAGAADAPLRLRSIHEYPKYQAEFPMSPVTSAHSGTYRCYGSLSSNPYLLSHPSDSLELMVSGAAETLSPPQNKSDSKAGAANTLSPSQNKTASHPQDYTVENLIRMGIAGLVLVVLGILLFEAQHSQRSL
T2 sequence (Q8N423 other isoform, or with tags, fused parts or gaps limits assumed): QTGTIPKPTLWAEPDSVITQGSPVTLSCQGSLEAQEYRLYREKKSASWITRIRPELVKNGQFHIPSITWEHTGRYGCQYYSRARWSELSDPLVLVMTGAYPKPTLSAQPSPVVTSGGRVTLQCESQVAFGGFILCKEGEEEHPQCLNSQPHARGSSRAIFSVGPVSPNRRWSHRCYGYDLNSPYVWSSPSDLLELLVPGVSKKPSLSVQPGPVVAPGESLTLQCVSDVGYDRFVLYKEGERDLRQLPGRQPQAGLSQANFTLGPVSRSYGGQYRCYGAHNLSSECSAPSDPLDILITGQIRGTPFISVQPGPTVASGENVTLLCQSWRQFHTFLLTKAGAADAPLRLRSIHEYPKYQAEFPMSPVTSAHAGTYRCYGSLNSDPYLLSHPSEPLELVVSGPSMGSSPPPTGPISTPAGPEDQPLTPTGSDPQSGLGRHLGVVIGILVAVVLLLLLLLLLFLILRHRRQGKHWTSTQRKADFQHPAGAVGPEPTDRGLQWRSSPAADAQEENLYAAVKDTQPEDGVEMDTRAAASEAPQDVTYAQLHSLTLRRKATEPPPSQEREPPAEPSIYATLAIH

binding (fold over iso) (human LILRA1): 0.89 fold over iso
binding result (human LILRA1): no binding
CCL2 production (fold over LPS alone) [1]: 0.95 fold over LPS alone
IL-6 production (fold over LPS alone) [1]: 1.1 fold over LPS alone
IL-10 production (fold over LPS alone) [1]: 0.97 fold over LPS alone
TNFa production (fold over LPS alone) [1]: 1.27 fold over LPS alone
HLA-A2:LILRB2 CHOs blocking (% blocked) [2]: -208 % blocked
binding (fold over iso) (human LILRA2): 1.58 fold over iso
binding result (human LILRA2): no binding
binding (fold over iso) (human LILRB1): 0.94 fold over iso
binding result (human LILRB1): no binding
binding (fold over iso) (human LILRB5): 1 fold over iso
binding result (human LILRB5): no binding
binding (fold over iso) (human LILRB4): 1.02 fold over iso
binding result (human LILRB4): no binding
binding (fold over iso) (human LILRA6): 1.23 fold over iso
binding result (human LILRA6): no binding
binding (fold over iso) (human LILRA5): 0.96 fold over iso
binding result (human LILRA5): no binding
binding (fold over iso) (human LILRB3): 0.97 fold over iso
binding result (human LILRB3): no binding
binding (fold over iso) (human LILRA3): 1.05 fold over iso
binding result (human LILRA3): no binding
HLA-G:LILRB2 CHOs blocking (% blocked) [3]: -156 % blocked
binding (fold over iso) [4]: 30.1 fold over iso
B1: J-03 (antibody, human IgG4 S228P, kappa, V domains shown)
VH: QVQLQQSGAELVRPGASVTLSCKASGYKFTDYEMHWVKQTPVHGLEWIGAIDPETNGTAYNKKFKGKAILTADKSSSTAYMELRSLTSEDSAVYYCTRGDYDFSAWFAYWGQGTLVTVSA
VL: DIVLTQSPASLAVSLGQRATISCRASESVDNYDISFMHWYQQKPGQPPKLLIYRASNLESGIPARFSGSGSRTDFTLTINPVETDDVATYYCQQSNKDPRTFGGGTKLEIKR
notes: Human IgG4 chimera of murine origin

binding (fold over iso) (human LILRA1): 0.88 fold over iso
binding result (human LILRA1): no binding
CCL2 production (fold over LPS alone) [1]: 1 fold over LPS alone
IL-6 production (fold over LPS alone) [1]: 1.36 fold over LPS alone
IL-10 production (fold over LPS alone) [1]: 0.95 fold over LPS alone
TNFa production (fold over LPS alone) [1]: 1.18 fold over LPS alone
HLA-A2:LILRB2 CHOs blocking (% blocked) [2]: -319 % blocked
binding (fold over iso) (human LILRA2): 1.62 fold over iso
binding result (human LILRA2): no binding
binding (fold over iso) (human LILRB1): 0.95 fold over iso
binding result (human LILRB1): no binding
binding (fold over iso) (human LILRB5): 1.08 fold over iso
binding result (human LILRB5): no binding
binding (fold over iso) (human LILRB4): 0.83 fold over iso
binding result (human LILRB4): no binding
binding (fold over iso) (human LILRA6): 1.3 fold over iso
binding result (human LILRA6): no binding
binding (fold over iso) (human LILRA5): 0.74 fold over iso
binding result (human LILRA5): no binding
binding (fold over iso) (human LILRB3): 0.9 fold over iso
binding result (human LILRB3): no binding
binding (fold over iso) (human LILRA3): 0.93 fold over iso
binding result (human LILRA3): no binding
HLA-G:LILRB2 CHOs blocking (% blocked) [3]: -255 % blocked
binding (fold over iso) [4]: 33.8 fold over iso
B2: J-04 (antibody, human IgG4 S228P, kappa, V domains shown)
VH: QVQLQQSGAELVRPGASVTLSCKASGYTFADYEIHWVKQTPVHGLEWIGAIDPETGGTAYNQKFKGKAILTADKSSSTAYMELRSLTSEDSAVYYCTRYYDYDDAMDYWGQGTSVTVSS
VL: QIVLTQSPAIMSASPGEKVTMTCSASSSVSFMHWYQQKSGTSPKRWIYGTSKLASGVPARFSGSGSGTSYSLTISSMEAEDAATYYCQQWNGNPFTFGSGTKLETKR
notes: as for B1
